One block for each binder: values may come before it.
What was measured:
Myc-human MARVELD3 = biological target: T1, Myc-human MARVELD3 (human, UniProt Q96A59 2-401); test: flow cytometry on Expi293 cells transiently expressing Myc-human MARVELD3 isoform2 against cells with empty vector; anti-human IgG Fc Alexa488
T1 construct: also called human MARVELD3 isoform2; MARVELD3 isoform2
T1 sequence: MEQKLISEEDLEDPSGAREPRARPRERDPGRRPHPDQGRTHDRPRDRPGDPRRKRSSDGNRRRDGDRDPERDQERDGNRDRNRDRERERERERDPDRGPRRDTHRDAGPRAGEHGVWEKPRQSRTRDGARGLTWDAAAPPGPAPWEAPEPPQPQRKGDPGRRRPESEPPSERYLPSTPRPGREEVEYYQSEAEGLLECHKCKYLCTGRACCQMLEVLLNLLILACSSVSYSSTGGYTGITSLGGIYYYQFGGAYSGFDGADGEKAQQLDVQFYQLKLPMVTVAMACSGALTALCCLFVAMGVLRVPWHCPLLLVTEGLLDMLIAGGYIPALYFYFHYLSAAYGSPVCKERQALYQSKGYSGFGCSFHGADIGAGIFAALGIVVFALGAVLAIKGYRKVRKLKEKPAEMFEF
Text: A plasmid vector that expresses, in mammalian cells, a molecule (Myc-human MARVELD3, nucleotide SEQ ID NO: 29, amino acid SEQ ID NO: 30) in which the Myc tag sequence ([…], SEQ ID NO: 25) has been added after the N-terminal methionine of full-length human MARVELD3 isoform2 (amino acid SEQ ID NO: 4), was introduced into Expi293 cells (Thermo Fisher Scientific), and the protein was transiently expressed in the Expi293 cells. At the same time, Expi293 cells transfected with an empty plasmid vector were also prepared as a control. The Expi293 cells transfected with an empty plasmid vector were stained with CellTrace FarRed (Thermo Fisher Scientific) and then mixed with the Expi293 cells made to express human MARVELD3 isoform2, and subsequently reacted with an anti-human MARVELD3 isoform2 antibody prepared in Example 9. […] The cells reacted with the antibody were measured by FACS Aria III (Becton, Dickinson and Company). The obtained data were analyzed by FlowJo ver.10. The live cell fraction, which was not stained with DAPI fluorescence, was separated into a fraction that was stained with CellTrace FarRed (cells transfected with the empty plasmid vector) and a fraction that was not stained with CellTrace FarRed (cells transfected with the human XPR1-Myc expression plasmid vector), and Alexa488 staining for each fraction was examined.

NOX1_Nx1B_564-myc = biological target: T2, NOX1_Nx1B_564-myc (human); test: flow cytometry on fixed, digitonin-treated Expi293 cells expressing NOX1_Nx1B_564-myc against cells with empty vector; anti-human IgG Fc Alexa488
T2 construct: Expressed in Expi293 cells treated with 4% paraformaldehyde and 1% digitonin before staining; also called human NOX1
Protocol: (§1) A plasmid vector expressing human NOX1-Strep (amino acid SEQ ID NO: 34) or a plasmid vector expressing NOX1_Nx1B_564-myc (amino acid SEQ ID NO: 33) was introduced into Expi293 cells (Thermo Fisher Scientific) to express the protein transiently. At the same time, Expi293 cells transfected with an empty plasmid vector were also prepared as a control. These cells were treated with 4% paraformaldehyde and 1% digitonin. The Expi293 cells transfected with an empty plasmid vector were stained with CellTrace FarRed (Thermo Fisher Scientific), the Expi293 cells transfected with the plasmid vector expressing human NOX1-Strep were stained with CellTrace FarRed and CellTrace Violet (Thermo Fisher Scientific), and then mixed with the Expi293 cells made to express NOX1_Nx1B_564-myc. Subsequently, the cells were reacted with an anti-human NOX1 antibody prepared in Example 13.
(§2) Then, anti-human IgG Fc cross-adsorbed Alexa488 (Invitrogen) was reacted to stain the anti-human NOX1 antibody. The cells reacted with the antibody were measured by FACS Aria III (Becton, Dickinson and Company). The obtained data were analyzed by FlowJo ver.10.

human NOX1-Strep = human NOX1-Strep (human, UniProt Q9Y5S8 1-564); test: flow cytometry on fixed, digitonin-treated Expi293 cells expressing human NOX1-Strep against cells with empty vector; anti-human IgG Fc Alexa488
Protocol: as §1, §2

human XPR1-Myc = biological target: T3, human XPR1-Myc (human, UniProt Q9UBH6 1-696); test: flow cytometry on Expi293 cells transiently expressing human XPR1-Myc against cells with empty vector; anti-human IgG Fc Alexa488
T3 sequence: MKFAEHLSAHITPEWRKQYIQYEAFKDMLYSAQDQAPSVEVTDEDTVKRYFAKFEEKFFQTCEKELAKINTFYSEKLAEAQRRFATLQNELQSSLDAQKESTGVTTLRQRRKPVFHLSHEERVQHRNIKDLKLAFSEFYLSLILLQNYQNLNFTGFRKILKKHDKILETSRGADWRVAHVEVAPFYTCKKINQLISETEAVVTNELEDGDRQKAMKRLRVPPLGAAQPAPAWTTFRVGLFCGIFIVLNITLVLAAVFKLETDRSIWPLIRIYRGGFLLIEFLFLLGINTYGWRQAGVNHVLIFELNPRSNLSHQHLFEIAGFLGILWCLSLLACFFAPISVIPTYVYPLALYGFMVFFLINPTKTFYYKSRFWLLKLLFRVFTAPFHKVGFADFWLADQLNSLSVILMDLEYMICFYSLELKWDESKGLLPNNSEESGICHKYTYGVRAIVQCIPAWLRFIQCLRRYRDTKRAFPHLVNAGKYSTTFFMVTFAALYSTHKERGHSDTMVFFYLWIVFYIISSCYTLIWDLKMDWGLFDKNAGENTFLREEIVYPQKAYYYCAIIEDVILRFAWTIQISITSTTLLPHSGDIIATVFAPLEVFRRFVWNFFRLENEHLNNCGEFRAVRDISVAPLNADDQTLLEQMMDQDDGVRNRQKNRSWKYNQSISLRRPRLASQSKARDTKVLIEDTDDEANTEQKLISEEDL
Protocol: A plasmid vector expressing in mammalian cells full-length human XPR1 (amino acid SEQ ID NO: 1) with a Myc tag sequence ([…], SEQ ID NO: 25) added to the C-terminus (human XPR1-Myc, nucleotide SEQ ID NO: 26, amino acid SEQ ID NO: 27) was constructed. The protein was transiently expressed in Expi293 cells (Thermo Fisher Scientific) by introducing the constructed plasmid vector into Expi293 cells. At the same time, Expi293 cells transfected with an empty plasmid vector were also prepared as a control. The Expi293 cells transfected with an empty plasmid vector were stained with CellTrace FarRed (Thermo Fisher Scientific) and then mixed with the Expi293 cells made to express human XPR1-Myc, and subsequently reacted with the anti-human XPR1 antibody prepared in Example 6. […] The cells reacted with the antibody were measured by FACS Aria III (Becton, Dickinson and Company). The obtained data were analyzed by FlowJo ver.10. The live cell fraction, which was not stained with DAPI fluorescence, was separated into a fraction that was stained with CellTrace FarRed (cells transfected with the empty plasmid vector) and a fraction that was not stained with CellTrace FarRed (cells transfected with the human XPR1-Myc expression plasmid vector), and Alexa488 staining for each fraction was examined.

T2 sequence (chain, as listed by the source limits assumed): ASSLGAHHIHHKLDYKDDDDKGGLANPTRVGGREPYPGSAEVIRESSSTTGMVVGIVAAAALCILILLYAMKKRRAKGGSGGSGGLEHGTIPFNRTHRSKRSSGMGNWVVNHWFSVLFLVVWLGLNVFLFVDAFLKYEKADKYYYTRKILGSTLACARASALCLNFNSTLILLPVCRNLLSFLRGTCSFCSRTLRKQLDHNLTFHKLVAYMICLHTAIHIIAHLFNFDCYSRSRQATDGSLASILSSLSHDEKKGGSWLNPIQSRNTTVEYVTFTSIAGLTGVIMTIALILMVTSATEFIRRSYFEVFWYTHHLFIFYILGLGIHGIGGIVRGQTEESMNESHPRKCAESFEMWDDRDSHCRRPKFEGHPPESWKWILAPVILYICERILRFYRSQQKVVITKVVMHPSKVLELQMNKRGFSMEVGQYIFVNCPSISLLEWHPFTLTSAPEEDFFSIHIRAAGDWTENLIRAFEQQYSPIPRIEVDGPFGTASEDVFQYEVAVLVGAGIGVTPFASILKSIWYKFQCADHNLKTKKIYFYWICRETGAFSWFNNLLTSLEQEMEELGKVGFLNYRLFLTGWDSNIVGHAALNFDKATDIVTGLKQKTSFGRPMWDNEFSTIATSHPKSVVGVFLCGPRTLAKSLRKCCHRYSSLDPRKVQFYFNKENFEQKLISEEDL
Sequence of human NOX1-Strep (Q9Y5S8 other isoform, or with tags, fused parts or gaps): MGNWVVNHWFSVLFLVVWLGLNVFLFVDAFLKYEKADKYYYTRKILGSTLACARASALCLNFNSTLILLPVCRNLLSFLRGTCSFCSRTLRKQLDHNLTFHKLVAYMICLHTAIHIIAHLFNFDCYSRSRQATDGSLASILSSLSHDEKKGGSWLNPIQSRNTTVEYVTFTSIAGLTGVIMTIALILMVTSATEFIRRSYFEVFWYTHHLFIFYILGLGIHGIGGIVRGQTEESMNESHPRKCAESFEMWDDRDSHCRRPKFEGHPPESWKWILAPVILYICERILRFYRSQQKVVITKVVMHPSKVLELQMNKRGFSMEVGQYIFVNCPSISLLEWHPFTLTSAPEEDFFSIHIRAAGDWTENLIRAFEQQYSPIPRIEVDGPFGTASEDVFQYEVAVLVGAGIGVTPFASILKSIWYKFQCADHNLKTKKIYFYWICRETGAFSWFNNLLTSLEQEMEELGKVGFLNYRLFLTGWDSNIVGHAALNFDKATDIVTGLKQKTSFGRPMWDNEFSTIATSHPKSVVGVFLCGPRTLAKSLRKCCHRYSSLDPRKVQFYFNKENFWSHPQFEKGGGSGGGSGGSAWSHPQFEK

binding result (Myc-human MARVELD3): binds
B1: MDA0314 (antibody, V domains shown)
VH: QSLEESGGRLVTPGTPLTLTCTASGFSLSYYFMTWVRQAPGKGLEYIGIIRVDGSGYYATWAKGRFTISRTSTTVELKITSPTTEDTATYFCARVGDWAFNIWGPGTLVTVSS
VL: IKMTQTPASVSTAVGGTVSINCQASEDIESYLAWFQQKPGQRPKLLIYRASTLASGVSSRFKGSGSGTEFTLTISGVECADAATYYCQQGHTINNIDNVFGGGTEVVVK
notes: Rabbit variable regions inserted into an expression vector containing the IgG constant regions; detected with anti-human IgG Fc; also called anti-human MARVELD3 isoform2 antibody

binding result (NOX1_Nx1B_564-myc): binds
binding result (human NOX1-Strep): binds
B2: NXA0164 (antibody, V domains shown)
VH: QSVEESGGRLVTPGTPLTLTCTVSGFSLSNYAMSWVRQAPGKGLEWIGIISSSGSTYYASWAKGRFTISKTSTTVDLKITSPTTEDTATYFCARDLDASTGTDIWGPGTLVTVSS
VL: AVLTQTPSPVSAAVGGTVTINCQASQSVYSNNYLSWFQQKPGQPPKLLIYKASTLASGVPSRFKGSGSGTQFTLTISDVQCDDAATYYCAGDYKSSSDIRAFGGGTEVVVK
notes: Rabbit variable regions inserted into an expression vector containing IgG constant regions; detected with anti-human IgG Fc; also called anti-human NOX1 antibody

binding result (NOX1_Nx1B_564-myc): binds
binding result (human NOX1-Strep): binds
B3: NXA0125 (antibody, V domains shown)
VH: QEQLEESGGDLVKPGASLTLTCTASGFSFNSNYFMCWVRQAPGKGLEWIACIYTGSSGGTYYATWAKGRFTISKTSSTTVTLQMTSLTAADTATYFCAGDTMTIPFNLWGPGTLVTVSS
VL: QVLTQTASPVSAPVGGTVTINCQASQSVYNNNNLHWFQQKPGQRPKLLIYFASTLASGVSSRFKGSGSGTQFTLTISGVQCDDAATYYCQGEFSCSSADCNAFGGGTEVVVK
notes: as for B2

binding result (Myc-human MARVELD3): binds
B4: MDA0279 (antibody, V domains shown)
VH: QSLEESGGDLVKPGGTLTLTCTASGFSFSDWYWVGWVRQAPGKGLEWIGCIVTGNGHTYYASWAKGRFTISKTSSTTVTLQLNSLTAADTATYFCARGVGASRYALWGPGTLVTVSS
VL: IVMTQTPSSKSVPVGDTVTINCQASESVASNWLSWYQQKPGQPPKLLIYFASTLASGVPSRFKGSGSGTQFTLTISDVVCDDAATYYCAGYKSDTTDGTAFGGGTEVVVK
notes: as for B1

binding result (human XPR1-Myc): binds
B5: XPB0062 (antibody, V domains shown)
VH: QSLEESGGDLVKPGASLTLTCTASGFSFSSSYWICWVRQAPGKGLEWIACINAGNSGSTYYASWAKGRFTISKTSSTTVTLQMTSLTAADTATYFCARGSYSYGYVGYVYTTSTRLDLWGQGTLVTVSS
VL: DVVMTQTPASVSEPVGGTVTIKCQASQNIGSDLAWYQQKPGQPPKLLIYRASTLASGVSSRFKGSGSGTQFTLTISDLECADAATYYCQCTYYGSIYVPNAFGGGTEVVVK
notes: Rabbit variable regions inserted into an expression vector containing the IgG constant regions (recombinant antibody); detected with anti-human IgG Fc; also called anti-human XPR1 antibody

Reference: patent US20220089770A1 (Chugai, published 2022)
